In patent CN110577600A (SHANGHAI INST MATERIA MEDICA CAS; NANJING LEADS BIOLABS …, dated 2019) one finds Kd, koff and kon data, which are given here for 1 molecule.

The target of the experiment is T1, 重组人GPC3蛋白 (human, UniProt P51654 25-559, limits assumed).
T1 construct: also called 磷脂酰肌醇聚糖蛋白3
The experiment in a line: SPR, Biacore X100; antibody captured on goat anti-human Fc gamma CM5 chip, human GPC3 10nM-80nM as analyte, 1:1 Langmuir model.

T1 sequence (P51654 25-559 limits assumed): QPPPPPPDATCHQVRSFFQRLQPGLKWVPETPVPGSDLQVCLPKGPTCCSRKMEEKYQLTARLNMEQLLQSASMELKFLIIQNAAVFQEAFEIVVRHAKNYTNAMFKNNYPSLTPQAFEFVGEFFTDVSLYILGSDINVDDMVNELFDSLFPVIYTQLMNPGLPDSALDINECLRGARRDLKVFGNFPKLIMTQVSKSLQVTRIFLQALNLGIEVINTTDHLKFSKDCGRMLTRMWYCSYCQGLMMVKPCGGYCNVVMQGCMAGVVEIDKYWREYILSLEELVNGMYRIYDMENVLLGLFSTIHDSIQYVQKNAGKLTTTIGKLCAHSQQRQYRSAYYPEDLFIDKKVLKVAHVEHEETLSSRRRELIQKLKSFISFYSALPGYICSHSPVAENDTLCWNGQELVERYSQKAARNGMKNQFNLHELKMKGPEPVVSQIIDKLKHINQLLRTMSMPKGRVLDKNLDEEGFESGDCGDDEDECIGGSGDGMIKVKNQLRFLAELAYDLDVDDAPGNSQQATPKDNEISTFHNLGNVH

B1: 抗体GPC3-6 (antibody, human IgG1, lambda, V domains shown)
VH: QVHLVQSGAEVQKPGSSVKVSCKASGGTFSSYGINWVRQAPGQGLEWMGWISAYNGNTNYAQKLQGRVTMTTDTSTSTAYMELRSLRSDDTAVYYCARGSGLLPRIGGYWGKGTMVTVSS
VL: LSSELTQDPAVSVPLGQTVRITCRGDSLRTFYATWYQQKPGQAPVRVIYRKNNRPSGIPDRFSGSSSGNTASLTITGAQAEDEADYYCNSRDSSGDHLVFGTGTKLTVLG
notes: Selected from a phage display antibody library against GPC3; In SPR it was captured through goat anti-human Fc gamma; also called 人抗GPC3抗体GPC3-6; 抗GPC3抗体
As usually defined, the Kd is the free concentration of one partner at which half of the binding sites on the other are occupied at equilibrium, for simple one-to-one binding. The low end stands for higher affinity, the high end for lower affinity. For orientation: koff means a measure of how fast the partners let go of each other. High values mean a short-lived complex, low ones a long-lived complex. By kon is commonly meant the second-order rate constant of association. Read a low kon as slower complex formation. Turning to B1, the Kd was 3.77 nM, the koff turned out to be 0.000719 s⁻¹ and the kon was 190000 M⁻¹ s⁻¹.
